In paper doi:10.1101/2025.03.09.641110 (bioRxiv, 2025) one finds Kd data, which are given here for three molecules.

The target in this assay is extracellular domain of human PD-1 (Programmed cell death protein 1) (Homo sapiens, UniProt Q15116). Briefly: SPR.

Where a chain is given by its changes, count along the chain named. Names and notes keep the numbering of the source.

extracellular domain of human PD-1 (Programmed cell death protein 1), sequence (Q15116 25-170): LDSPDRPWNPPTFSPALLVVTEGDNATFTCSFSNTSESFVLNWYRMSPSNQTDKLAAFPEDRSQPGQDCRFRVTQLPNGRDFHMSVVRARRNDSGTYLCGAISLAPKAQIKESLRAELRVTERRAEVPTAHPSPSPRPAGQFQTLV

B1: chimeric ALX07 (murine ALX07 variable regions, IgG4 chimeric antibody) (antibody, V domains shown)
VH: QVTLKESGPGILQPSQTLSLTCSFSGFSLSTSALGVGWIRQPPGKGLVWLAHIWWNDVKRSNPALKGRLTISKDTSSSQVFLNIANVDTADTATYYCARSYGNHWYFDVWGAGTTVTVSS
VL: SVVMTQTPKFLLVSAGDRVTIACKASQSVSNDVAWFQQKPGQSPKLLIYYAFTRYIGVPDRFTASGYGTDFTFTISTVQAEDLAIYFCQQDYISPYTFGGGTKLEIK
For the molecule B1, the dissociation constant (Kd) worked out at 1.31 nM.

B2: ALX07xh-05 (direct CDR-grafted humanized ALX07) (antibody, V domains shown)
VH: QVTLKESGPALVKPTQTLTLTCTFSGFSLSTSALGVGWIRQPPGKALEWLAHIWWNDVKRSNPALKGRLTISKDTSKNQVVLTMTNMDPVDTATYYCARSYGNHWYFDVWGQGTLVTVSS
VL: DIVMTQSPDSLAVSLGERATINCKASQSVSNDVAWYQQKPGQPPKLLIYYAFTRYIGVPDRFSGSGSGTDFTLTISSLQAEDVAVYYCQQDYISPYTFGQGTKLEIK
B2 returned a dissociation constant (Kd) of 140 nM.

B3: humanized ALX07 (CDR graft) with the S67Y back mutation in the light chain alone (antibody, V domains shown)
VH: B2 VH
VL: B2 VL with S67Y
As for B3, the Kd came to 2.01 nM.

Broadly, the Kd is the equilibrium constant for the complex coming apart.
